Earlier results, collected in patent US12305171B2, “Compositions and methods for treating cancer” (bioAffinity Technologies, Inc., priority 2018, dated 2025).
Read-outs that look alike come from different tables or passages of the source.

B1: TCN2-Cbl: complex of transcobalamin 2 (TCN2) with cobalamin (vitamin B12) (protein, UniProt P20062 19-427, looked up)
Transcobalamin-2: EMCEIPEMDSHLVEKLGQHLLPWMDRLSLEHLNPSIYVGLRLSSLQAGTKEDLYLHSLKLGYQQCLLGSAFSEDDGDCQGKPSMGQLALYLLALRANCEFVRGHKGDRLVSQLKWFLEDEKRAIGHDHKGHPHTSYYQYGLGILALCLHQKRVHDSVVDKLLYAVEPFHQGHHSVDTAAMAGLAFTCLKRSNFNPGRRQRITMAIRTVREEILKAQTPEGHFGNVYSTPLALQFLMTSPMRGAELGTACLKARVALLASLQDGAFQNALMISQLLPVLNHKTYIDLIFPDCLAPRVMLEPAAETIPQTQEIISVTLQVLSLLPPYRQSISVLAGSTVEDVLKKAHELGGFTYETQASLSGPYLTSVMGKAAGEREFWQLLRDPNTPLLQGIADYRPKDGETIELRLVSW
modifications: complexed with cobalamin
B2: TCN1: plasma glycoprotein chaperone of cobalamin, sialylated and desialylated forms (protein, UniProt P20061 24-433, looked up)
Transcobalamin-1: EICEVSEENYIRLKPLLNTMIQSNYNRGTSAVNVVLSLKLVGIQIQTLMQKMIQQIKYNVKSRLSDVSSGELALIILALGVCRNAEENLIYDYHLIDKLENKFQAEIENMEAHNGTPLTNYYQLSLDVLALCLFNGNYSTAEVVNHFTPENKNYYFGSQFSVDTGAMAVLALTCVKKSLINGQIKADEGSLKNISIYTKSLVEKILSEKKENGLIGNTFSTGEAMQALFVSSDYYNENDWNCQQTLNTVLTEISQGAFSNPNAAAQVLPALMGKTFLDINKDSSCVSASGNFNISADEPITVTPPDSQSYISVNYSVRINETYFTNVTVLNGSVFLSVMEKAQKMNDTIFGFTMEERSWGPYITCIQGLCANNNDRTYWELLSGGEPLSQGAGSYVVRNGENLEVRWSKY

Details: cited from earlier work

Molecule | plasma half-life (in vivo) [h] | plasma half-life (desialylated, less abundant form) | plasma half-life (sialylated, most abundant form)
B1 | 1 to 15 |  | 
B2 |  | a few minutes | about 10 days
